Measurements: paper PMC6289461, “Mek1 coordinates meiotic progression with DNA break repair by directly phosphorylating and inhibiting the yeast pachytene exit regulator Ndt80”

Target: T1, 6xHis-Ndt80 WT DBD (Saccharomyces cerevisiae, UniProt P38830 1-340)
T1 sequence: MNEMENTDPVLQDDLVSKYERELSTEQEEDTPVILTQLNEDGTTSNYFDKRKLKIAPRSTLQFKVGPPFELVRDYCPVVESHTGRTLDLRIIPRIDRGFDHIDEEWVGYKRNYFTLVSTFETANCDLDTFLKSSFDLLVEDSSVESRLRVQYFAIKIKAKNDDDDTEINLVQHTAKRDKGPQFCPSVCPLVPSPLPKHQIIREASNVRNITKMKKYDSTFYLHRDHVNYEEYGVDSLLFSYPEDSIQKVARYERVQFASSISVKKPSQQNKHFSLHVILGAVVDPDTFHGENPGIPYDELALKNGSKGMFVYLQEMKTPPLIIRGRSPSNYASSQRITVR
Test: EMSA; 50 nM DBD, 50 nM duplex; highest non-specific binding of the three DBDs; EMSA: 10 mM Tris-HCl pH 7.5, 40 mM NaCl, 4 mM MgCl2, 6% glycerol, 10 mg/ml BSA, 10 ug/ml sonicated salmon sperm DNA; 20 ul, room temperature, 30 min; 6% PAGE in 0.5X TBE
Conditions: protein: recombinant; tags: N-terminal 6xHis (pET-28a); label: 5' Cy5 on strand 1; blunt

B1: Cy5-Scr duplex (dsDNA)
DNA 1: ATTGACGCGGCTTCATCTCACGTATCATT
DNA 2: AATGATACGTGAGATGAAGCCGCGTCAAT
Question: Does B1 bind?
Answer: binds
